Assay [1] has as its target T1, human complement C1s enzyme (activated C1s) (human, UniProt P09871 16-437; P09871 438-688).
T1 sequence 1: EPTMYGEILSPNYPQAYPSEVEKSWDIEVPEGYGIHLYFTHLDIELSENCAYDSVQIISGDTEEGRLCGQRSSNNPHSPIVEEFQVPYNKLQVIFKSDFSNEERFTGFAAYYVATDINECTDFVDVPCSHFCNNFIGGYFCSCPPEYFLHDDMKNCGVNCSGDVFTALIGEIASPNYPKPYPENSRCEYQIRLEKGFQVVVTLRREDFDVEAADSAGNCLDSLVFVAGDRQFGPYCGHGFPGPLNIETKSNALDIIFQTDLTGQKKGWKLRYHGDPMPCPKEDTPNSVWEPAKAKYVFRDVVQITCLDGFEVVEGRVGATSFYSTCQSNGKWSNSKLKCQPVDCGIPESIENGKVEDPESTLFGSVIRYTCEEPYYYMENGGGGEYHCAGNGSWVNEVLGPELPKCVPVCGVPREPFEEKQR
T1 sequence 2: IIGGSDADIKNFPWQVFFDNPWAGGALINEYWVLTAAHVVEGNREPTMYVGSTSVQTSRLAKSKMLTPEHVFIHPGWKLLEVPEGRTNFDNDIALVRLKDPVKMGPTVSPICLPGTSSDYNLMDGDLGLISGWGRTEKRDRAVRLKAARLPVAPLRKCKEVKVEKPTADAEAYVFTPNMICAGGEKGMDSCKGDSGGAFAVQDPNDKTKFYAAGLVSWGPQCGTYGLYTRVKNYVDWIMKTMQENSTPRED
As to the kind of experiment: cell-based or functional assay.

The target of assay [2] is T1, human complement C1s enzyme (activated …). Description: SPR.
The target in assay [3] is T2, human complement factor Bb (human, UniProt P00751 260-764). Description: cell-based or functional assay.
Assay [4] concerns the target T1, human complement C1s enzyme (activated …). As to the kind of experiment: cell-based or functional assay. The source holds these as a separate data set.
The target in assay [5] is T2, human complement factor Bb. As to the kind of experiment: BLI (Octet), biotinylated target on streptavidin sensor; partially purified protein. An excerpt:
(§1) Bio-layer interferometry (BLI) was used to assess the recombinant proteins' target engagement to and binding affinity for complement C1s enzyme (active C1s or “C1s” herein) and factor Bb (Bb) (Complement Technology, Tyler, TX, USA). C1s and Bb were biotinylated with EZ-Link™ Sulfo-NHS-LC-LC-Biotin (Thermo Fisher, Waltham, MA, USA) according to manufacturer instructions. Biotinylated C1s or Bb was loaded on Octet® Streptavidin (SA) Biosensors (Sartorius, Göttingen, Germany), followed by a concentration range of purified proteins. To assess dual target engagement, biotinylated active C1s or Bb was loaded onto sensors, followed by purified proteins (“first association phase”), followed by the non-captured complement target (Bb or active C1s, non-biotinylated; “second association phase”). The assays were performed at 30° C. using PBS with 0.1% Tween 20 as a diluent (FIG. 3).
(§2) The third expression construct, construct #9 (FIGS. 2B and 21), is composed of a bidirectional minCBA promoter driving expression of separate transcripts encoding human codon-optimized αBb scFab or αC1s scFab [αC1s scFab+αBb scFab], each followed by a bGH poly (A) signal.

For assay [6], the target named is T1, human complement C1s enzyme (activated …). The description is as above.
Excerpt: as §1, §2

Assay [7] deals with T2, human complement factor Bb. As to the kind of experiment: cell-based or functional assay. This is another data set of the same source.
Assay [8] deals with T1, human complement C1s enzyme (activated …). Description: cell-based or functional assay. This is another data set of the same source.
In assay [9] the target is T2, human complement factor Bb. As to the kind of experiment: cell-based or functional assay. The source holds these as a separate data set.
For assay [10], the target named is T1, human complement C1s enzyme (activated …). Description: cell-based or functional assay. The source holds these as a separate data set.
The target of assay [11] is T2, human complement factor Bb. As to the kind of experiment: cell-based or functional assay. This is another data set of the same source.
Assay [12] concerns the target T1, human complement C1s enzyme (activated …). As to the kind of experiment: cell-based or functional assay. The source holds these as a separate data set.
For assay [13], the target named is T2, human complement factor Bb. As to the kind of experiment: BLI (Octet), biotinylated target on streptavidin sensor.
Excerpt: as §1
For orientation: In BLI a coated tip is dipped into the sample, and binding shifts an interference pattern.

The target in assay [14] is T1, human complement C1s enzyme (activated …). The description is as above.
Excerpt: as §1

Assay [15] concerns the target T2, human complement factor Bb. Description: BLI (Octet), biotinylated target on streptavidin sensor; protein purified to >98%.
Excerpt: as §1

Assay [16] has as its target T1, human complement C1s enzyme (activated …). Described as above.
Excerpt: as §1

The target of assay [17] is T2, human complement factor Bb. As to the kind of experiment: cell-based or functional assay. The source holds these as a separate data set.
The target in assay [18] is T2, human complement factor Bb. Description: SPR. Background: SPR reads the build-up and loss of mass on a sensor chip optically.

T2 sequence (P00751 260-764): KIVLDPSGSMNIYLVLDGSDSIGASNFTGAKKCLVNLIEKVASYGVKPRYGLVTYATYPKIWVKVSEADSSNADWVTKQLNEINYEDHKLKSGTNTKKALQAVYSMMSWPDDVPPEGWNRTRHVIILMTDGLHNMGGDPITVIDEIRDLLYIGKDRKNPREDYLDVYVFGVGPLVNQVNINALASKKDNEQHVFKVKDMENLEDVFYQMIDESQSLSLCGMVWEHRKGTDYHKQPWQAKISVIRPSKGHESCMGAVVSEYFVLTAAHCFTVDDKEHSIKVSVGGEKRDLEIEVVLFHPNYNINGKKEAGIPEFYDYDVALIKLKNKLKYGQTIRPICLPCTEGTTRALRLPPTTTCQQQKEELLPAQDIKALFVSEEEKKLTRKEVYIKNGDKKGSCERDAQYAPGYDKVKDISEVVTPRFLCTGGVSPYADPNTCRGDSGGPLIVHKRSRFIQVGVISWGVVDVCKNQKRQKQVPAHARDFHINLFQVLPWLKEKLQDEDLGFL

B1: parental anti-C1s IgG4 antibody VH3/Vκ2 (antibody, V domains shown)
VH: QVQLVQSGAEVKKPGASVKLSCTASGFNIKDDYIHWVKQAPGQGLEWIGRIDPADGHTKYAPKFQVKVTITADTSTSTAYLELSSLRSEDTAVYYCARYGYGREVFDYWGQGTTVTVSS
VL: DIVLTQSPDSLAVSLGERATISCKASQSVDYDGDSYMNWYQQKPGQPPKILIYDASNLESGIPARFSGSGSGTDFTLTISSLEPEDFAIYYCQQSNEDPWTFGGGTKVEIK
notes: IgG4, from WO 2018/071676; full chains of the mAb are not; also called anti-C1s mAb; VH3/VK2
B1: the “Wieslab classical pathway IC50” value in [1] worked out at 22 nM. Besides, the Kd in assay [2] worked out at 1.5 nM.

B2: construct #14: αC1s scFab-(G4S)2-αBb scFv-CM (bispecific antibody)
chain: DIVLTQSPDSLAVSLGERATISCKASQSVDYDGDSYMNWYQEKPGQPPKILIYDASNLESGIPARFSGSGSGTDFTLTISSLEPEDFAIYYCQQSNEDPWTFGGGTKVEIKRTVAAPSVFIFPPSDEQLKSGTASVVCLLNNFYPREAKVQWKVDNALQSGNSQESVTEQDSKDSTYSLSSTLTLSKADYEKHKVYACEVTHQGLSSPVTKSFNRGECGGGGSGGGGSGGGGSGGGGSGGGGSGGGGSGGGGSQVQLVQSGAEVKKPGASVKLSCTASGFNIKDDYIHWVKKAPGQGLEWIGRIDPADGHTKYAPKFQVKVTITADTSTSTAYLELSSLRSEDTAVYYCARYGYGREVFDYWGQGTTVTVSSASTKGPSVFPLAPCSRSTSESTAALGCLVKDYFPEPVTVSWNSGALTSGVHTFPAVLQSSGLYSLSSVVTVPSSSLGTKTYTCNVDHKPSNTKVDKRVGGGGSGGGGSEVQLVESGGGLVKPGGSLRLSCAASGFTFSNYAMSWVREAPGKRLEWVATISNRGSYTYYPDSVKGRFTISRDNAKNSLYLQMNSLRAEDTALYYCARERPMDYWGQGTLVTVSSGGGGSGGGGSGGGGSDIQMTQSPSTLSASVGDRVTITCKASQDVGTAVAWYQKKPGKAPKLLIYWASTRHTGVPDRFSGSGSGTDFTLTISSLQAEDFAVYFCHQHSSNPLTFGQGTKLEIK
notes: Residues 1-20 were left out as the signal peptide, which is marked by boldface only
Consider B2, for which the “AP IC50 (Wieslab)” value in assay [3] is 551 nM. The “CP IC50 (Wieslab)” value in [4] amounted to 38.6 nM. In addition, the Kd is 2.5 nM in assay [5]; 1.4 nM in assay [6]; 2.5 nM in assay [13]; 1.4 nM in [14]; 4.2 nM in assay [15]; 1.3 nM in [16]. Also, the “Wieslab AP IC50, fold of purified anti-Bb Fab” value in assay [7] is roughly 6 fold. In addition, the “Wieslab CP IC50, fold of purified anti-C1s Fab” value in [8] was roughly 6 fold. The “IC50 AP (Wieslab)” value in assay [9] was found to be 551 nM. In addition, the “IC50 CP (Wieslab)” value in assay [10] was found to be 38.6 nM. The “IC50 AP Wieslab EIA” value in assay [11] came to 347 nM. In [12], the “IC50 CP Wieslab EIA” value came to 5.9 nM. The koff in [13] was found to be 0.00017 s⁻¹; in [14] it was 0.00049 s⁻¹. The figures for the kon in assay [13] and in assay [14] were 70000 M⁻¹ s⁻¹ and 360000 M⁻¹ s⁻¹, respectively.

B3: parental anti-Bb IgG4 antibody VH6/Vκ7-IgG4v2 (antibody, V domains shown)
VH: EVQLVESGGGLVKPGGSLRLSCAASGFTFSNYAMSWVRQAPGKRLEWVATISNRGSYTYYPDSVKGRFTISRDNAKNSLYLQMNSLRAEDTALYYCARERPMDYWGQGTLVTVSS
VL: DIQMTQSPSTLSASVGDRVTITCKASQDVGTAVAWYQQKPGKAPKLLIYWASTRHTGVPDRFSGSGSGTDFTLTISSLQAEDFAVYFCHQHSSNPLTFGQGTKLEIK
notes: IgG4 (IgG4v2), from U.S. Pat. No. 11,242,382 and WO 2021/216458; full chains of the mAb are not; also called anti-Bb mAb
Regarding B3, the “Wieslab alternative pathway IC50” value in assay [17] was 190 nM. Also, in [18], the Kd was determined as 7.3 nM.

B4: construct #12: αBb scFab-(G4S)3-αC1s scFab-CM (bispecific antibody)
chain: DIQMTQSPSTLSASVGDRVTITCKASQDVGTAVAWYQKKPGKAPKLLIYWASTRHTGVPDRFSGSGSGTDFTLTISSLQAEDFAVYFCHQHSSNPLTFGQGTKLEIKRTVAAPAVFIFPPSDEQLKSGTASVVCLLKNFYPREAKVQWKVDNALQSGNSQESVTEQDSKDSTYSLSSTLTLSKADYEKHKVYACEVTHQGLSSPVTKSFNRGECGGGGSGGGGSGGGGSGGGGSGGGGSGGGGSGGGGSEVQLVESGGGLVKPGGSLRLSCAASGFTFSNYAMSWVREAPGKRLEWVATISNRGSYTYYPDSVKGRFTISRDNAKNSLYLQMNSLRAEDTALYYCARERPMDYWGQGTLVTVSSASTKGPSVFPLAPCSRSTSESTAALGCLVKDYFPEPVTVSWNSGALTSGVHTFPAVLQSSGLYSLSSVVEVPSSSLGTKTYTCNVDHKPSNTKVDKRVGGGGGSGGGGSGGGGSDIVLTQSPDSLAVSLGERATISCKASQSVDYDGDSYMNWYQEKPGQPPKILIYDASNLESGIPARFSGSGSGTDFTLTISSLEPEDFAIYYCQQSNEDPWTFGGGTKVEIKRTVAAPSVFIFPPSDEQLKSGTASVVCLLNNFYPREAKVQWKVDNALQSGNSQESVTEQDSKDSTYSLSSTLTLSKADYEKHKVYACEVTHQGLSSPVTKSFNRGECGGGGSGGGGSGGGGSGGGGSGGGGSGGGGSGGGGSQVQLVQSGAEVKKPGASVKLSCTASGFNIKDDYIHWVKKAPGQGLEWIGRIDPADGHTKYAPKFQVKVTITADTSTSTAYLELSSLRSEDTAVYYCARYGYGREVFDYWGQGTTVTVSSASTKGPSVFPLAPCSRSTSESTAALGCLVKDYFPEPVTVSWNSGALTSGVHTFPAVLQSSGLYSLSSVVTVPSSSLGTKTYTCNVDHKPSNTKVDKRV
notes: as for B2
As for B4, the “AP IC50 (Wieslab)” value in [3] is 702 nM. The “CP IC50 (Wieslab)” value in assay [4] was 84.4 nM. The Kd is 6.6 nM in [5]; 3.6 nM in [6]; 6.6 nM in [13]; 3.6 nM in assay [14]; 1.5 nM in assay [15]; 5.4 nM in [16]. In addition, the “Wieslab AP IC50, fold of purified anti-Bb Fab” value in assay [7] was roughly 7 fold. The “Wieslab CP IC50, fold of purified anti-C1s Fab” value in assay [8] is roughly 14 fold. Moreover, the “IC50 AP (Wieslab)” value in assay [9] amounted to 702 nM. Moreover, the “IC50 CP (Wieslab)” value in assay [10] came to 84.4 nM. The “IC50 AP Wieslab EIA” value in assay [11] worked out at 428 nM. Moreover, the “IC50 CP Wieslab EIA” value in [12] worked out at 10.4 nM. In addition, the off-rate constant (koff) in assay [13] was determined as 0.00055 s⁻¹; in [14] it was 0.00065 s⁻¹. Further, the kon in [13] was determined as 80000 M⁻¹ s⁻¹; in assay [14], 180000 M⁻¹ s⁻¹.

A word on the Kd: it is the free concentration of one partner at which half of the binding sites on the other are occupied at equilibrium, for simple one-to-one binding. Read a high Kd as a looser complex. The koff is the rate constant with which the complex falls apart. In general, kon refers to a measure of how fast the partners come together. Higher therefore signals fast association.
